Source: US20140050749A1 (PURDUE PHARMA L P, published 2014)
Where no end group is shown, it is not given here. [ ]: non-standard residue; d: D form. Gly(cPent) = N[C@H](C(=O)O)C1CCCC1

target: T1, HLA-A2 (HLA-A0201) MHC class I complex (human); assay: ITopia soluble class I plate-based stability assay, 37 C
T1 construct: the methods section names HLA-A0201; also called HLA-A201; MHCI
Experimental: (§1) MHCI complexes were dissociated in each test well using stripping buffer, and the place-holder peptide and beta 2 microglobulin were washed away. 100 uM of the test peptide was added to appropriate wells along with additional beta 2 microglobulin and the anti-HLA ABC antibody, and the plates were incubated overnight at 21° C. Plates were washed, and fresh buffer was added to each well. Plates were shifted to 37° C., and the appropriate wells were read at 0, 0.5, 1, 1.5, 2, 4, 6 and 8 hours.

| Binder | Half Life of Complex [h] |
| --- | --- |
| ISTFKNWPF [Native Survivin 19-27 peptide ISTFKNWPF] | 0.24 |
| I[Gly(cPent)]TFKNWPF (Survivin 19-27 derivative) [I-[cpg]-TFKNWPF] | 1.9 |
| KVRRAIEQL [Native Survivin 130-138 peptide KVRRAIEQL] | 1.9 |
| AXGIGILTV ([cpg] (L-cyclopentylglycine) at position 2, MART-1 nonamer derivative) [A-[cpg]-GIGILTV] | > 100 |
| K[Gly(cPent)]RRAIEQL (Survivin 130-138 derivative) [K-[cpg]-RRAIEQL] | 50.6 |
| EXAGIGXLTV ([c5g] (aminocyclopentyl carboxylic acid) at position 2; [amv] at position 7 (abbreviation not defined in the filing), MART-1 decamer derivative with a double substitution) [E-[c5g]-AGIG-[amv]-LTV] | 11.9 |

target: T1, HLA-A2 (HLA-A0201) MHC class I complex; assay: ITopia soluble class I plate-based stability assay; reference is the native survivin peptide (SEQ ID NO: 31)
Experimental: as §1

| Binder | fold increase in the half life of the HLA-A2 peptide complex compared to the native survivin peptide [fold] |
| --- | --- |
| K[Gly(cPent)]RRAIEQL (Survivin 130-138 derivative) [K-[cpg]-RRAIEQL] | > 20 |
